Test results taken from a protein production outcome set (Wang et al. 2014).

Assay: label from the status in PepcDB records
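Also: failed if final PepcDB status was selected cloned or expressed and not failed if soluble or beyond.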

Sequence | protein production
MSASAVHSLWTTAADPISKIDAPKIEYGQLSPTLIVIGAALVGVLVEAFVPRKSRYYAQVFVSVVALAAAFAAVVALAAGGYGTTKAHIAAMGAIAVDGPALFLQGTILLAGLLGVFTFAERRLDPEVHGNRVDSFAAQAASVPGSDSEKAAVKAGFTTTEVFPLLLFAVGGMLIFPSANDLLTLFVALEVFSLPLYLLCAVARRKRLMSQEAAVKYFLLGAFASAFTLFGIALLYGYAGSMSYATIAQVVDGTVQNVDPALAGTMGNDALLLVGAAMLVMGLLFKVGAVPFHMWTPDVYQGAPTPVTGFMAAATKVAAFGALLRLLYVVLPGLRWDWRPVMWAVAIVTMLGGAIVAITQTDIKRLLAYSSIAHAGFILAGVIATTPDGVSSVLFYLGAYSFVTIGAFAVVTLVRDAGGEATHLSKWAGLGRRSPLVAAVFAVFLLAFAGIPLTSGFAGKFAVFKAAAEGGAAPLVVVGVISSAIAAFFYIRVIVLMFFSEPRPEGPTVAVPSPLTTTVIGVGVVVTLVLGVAPQYFLDLAG | failed
MSASVKESLQLQLLEMEMLFSMFPNQGEVKLEDVNALTNIKRYLEGTREALPPKIEFVITLQIEEPKVKIDLQVTMPHSYPYLALQLFGRSSELDRHQQLLLNKGLTSYIGTFDPGELCVCAAIQWLQDNSASYFLNRKLV | not failed
MSASVLSDPTMLISTPEVILVSPVSVTQISGDEPDSVTCDCCGLTEECTQSYIEMVRERYMGKWICGLCSEAVKYEVMRTKRLLTTEEAMARHMNMCNKFKSSSPPPNPTGHLISAMRQILRKSLDSPRMLRSMPNSPSKDDQDHHHDCVSNVLSRSDSCFASLT | failed
MSATAAARKRGKPASGAGAGAGAGKRRRKADSAGDRGKSKGGGKMNEEISSDSESESLAPRKPEEEEEEELEETAQEKKLRLAKLYLEQLRQQEEEKAEARAFEEDQVAGRLKEDVLEQRGRLQKLVAKEIQAPASADIRVLRGHQLSITCLVVTPDDSAIFSAAKDCSIIKWSVESGRKLHVIPRAKKGAEGKPPGHSSHVLCMAISSDGKYLASGDRSKLILIWEAQSCQHLYTFTGHRDAVSGLAFRRGTHQLYSTSHDRSVKVWNVAENSYVETLFGHQDAVAALDALSRECCVTAGGRDGTVRVWKIPEESQLVFYGHQGSIDCIHLINEEHMVSGADDGSVALWGLSKKRPLALQREAHGLRGEPGLEQPFWISSVAALLNTDLVATGSHSSCVRLWQCGEGFRQLDLLCDIPLVGFINSLKFSSSGDFLVAGVGQEHRLGRWWRIKEARNSVCIIPLRRVPVPPAAGS | failed
MSAYDNVIGGKLKLKGKALDVKAGGVKKKKKHKRQEEQALKITDHELIEGESTEALGKLIEGEEGDEEMNRSEKASEDAKLQQQLDDDDHLTPAERRYIEQKQRLDVQKLAKEANKSHRNRIEDFNQYLANMSEHYDIPKVGPG | failed
MSCKKTEKFSETWFFKWILNNQAVVSFLILLLIGLTVLIFTKISPIFSPVIQFLTIVMLPLVISMLLYYLIKPLVLLVERTGLNRTMSILVIYAILALLLVWGISTAIPNLQDQILILLRNAPSYISRANSETERWLKLPILSNFHGDLEAMLSDFSARMINYAENFSTSALSWIGTFASTVARVTVAIILTPFILFYLLRDSQKLKHSFVSALPTRFRETTVRMLSDINNQLEGYVRGQVTVAIVIAIMFCIMFKIVGLRYGMTFGILAGFLNMIPYLGSFIAMVPVVIMGLVQGPTMLIKVLIIFVIEQTIEGRFVSPLVLGNKLSIHPITIMFILLTAGSLYGVWGVLLGIPIYASVKVIVKDIFDWYRSVSNLYQDDIEIKGQKYDVK | failed
MSDAETLSVYAAKADDYANLTDEAAARDPSLVAFIAAMPKRGRVLDLGCGPGGSAAAMARAGLVVDAFDPVPEMVALAGRHAGVSARKAGFEDVTQVDHYDGIWANFSLLHAPRDDMPKHLARIATALKPGGRFHIGVKTGTGSKRDTLGRRYTYYSESELVDLLAAAGLTVFDRREGCDTGLDGVDAHWIVLAAHA | failed
MSDALINGLAGAGGGIIAQLLTYPLQTVNTRQQTERDLKREKRKLGTIEHMCQVVKQEGWERLYGGLAPSLAGTAASQGVYYYFYQVFRNRAEATALARKKKGLGDGSVGMFASLLVAAFAGSVNVLMTNPIWVIVTRMQTHRKMTKDQTAAPESPSSNAEALVAVEPRPYGTFNTIREVYDEAGITGFWKGVIPTLIMVSNPSMQFMLYETMLTKLKKKRALKGSNNVTALETFLLGAVAKLGATVTTYPLLVVKSRLQAKQVTTGDKRQQYKGTLDAILKMIRYEGLYGFYKGMSTKIVQSVLAAAVLFMIKEELVKGAKLLLSNATSS | failed
MSDDDDIQYIKRQRTLHYGSLEESERKRQNAAASGAAATTTSGTTASSGAGTTTTGTGGQLEDIDSDEDYEESTKKTSNAKQAGAPPPTAATLANKIDDDYFDLEMEMERDKVALLEEFERKKRARQINVSTDDTEIKSNLRQLNEPICYFGEGPAERRRRLKELLAGLGENAINKRQYEDEERKQQQREQDQATWYHEGPDSLRIARLWLADYSLPRAKDRLVRAREALEVPSAARAGRMVEMQKKLQSLAPLCSQVGDTRPVSSAAFSEDSSLLLTSSWSGLCKLWSVPDCELKQTLRGHASYVGGVALRPGVKADEENVVAMASGGHDGAVKLWGFNNEESIADITGHMPHRVSKVAFHPSGRFLATACYDSSWRLWDLEQKTEVLHQEGHAKPVHCLSYHSDGSVLVTGGLDAFGRVWDLRTGRCIMFLEGHLGAVFGVDFSPNGFHIATGSQDNTCKIWDLRRRQPVYTIPAHTNLISDVKYQQECGSFLVTCSYDSTTKIWSNKTWQPLKTLQGHDNKVISVDIAPNSQYIATTSFDRTFKLWSPDS | failed
MSDDLMHEPDAAQAILPPGFLKNPVHLLAFGFGSGAAPRAPGTWGSLAAIPLWYAFSWLPPAAYWLVVLAAFLVGIWLCGKTAADLKVHDHGGIVWDEFVGMWIALGLFPDQLYGVLMAFMLFRLFDVWKPWPINWLDERLPGGLGIMVDDVVAGAMALGCLWAIDVWVMPYIV | failed
MSDELSDRVAQYLRWQVSDKVALLAQRYPDDTSLTLDWTDLARWDPTLAEDILDAPDSMLEYVERGIRDTPLPVDTSLGQATPRFENLPESHTTAPGEFSPSDRRGQLLALEGQVAKRTQVQPRLVEAAFECQRCGTLTRIPFEPGQFIEPFECVGCETKGPFRINPDQSRYEDYQKLLLENPSSAALGGDTSDIIAHLQGDLAGHGAIANCQDVVLVGELQFRGGGPIPEPQVVVNSVQAAGQTYQDAEFTADQRDLFERLRERPESFDVDIEDPSTADVLMAAAAPKFVSGSHPRDRQVVRGLVLQLVSASTFDGPDGSHYRGDVHVLLPGDPGTGKSVLAKWAAAVAPRSAFASGERVSGPGLTAAAVKDDFSDGGFSIEPGVLVRAHEGIAVVDELDKAGDDAIEKMHSALADQILPLSLGGQSMTLPAECGLLGVCNPLGGHFAGDESLVDALGINSPLLSRFDLIMQMRSKQDREHVRELAESMIRTWSASLKDATGQALDTADADTIDPVLSMDQYRAVLLRARQLHPTPANDRVIEALAAWFEEQKMALPERYRDALADADGQYHGPPVPVTARKLGAARRVAQAAARANLREEITMADVEVAKELVSRSLADLDIPIVHNAGLGGGDVNRREPADLSGVS | failed
MSDEQHDSVWPPPGLDFSKPTIARVYDALLGGKDNFEADRALADYACKHIPGLKESAIENRKVLVRGVRFLAGEAGISQFLDLGSGLPTVQNTHEVAQSVNPDARVVYVDIDPMVLTHGRALLAKDPNTAVFTADVRDPEYILNHPDVRRMIDFSRPAAIMLVGMLHYLSPDVVDRVVGAYRDALAPGSYLFMTSLVDTGLPAQQKLARITRENLGEGWARTPEEIERQFGDFELVEPGVVYTALWRPDEPVDPDNLSPGEQLGMAGIGRKKA | not failed
MSDFGILSLLPPLVAIVLAIWTKRVVFALFSGVWIGGVMAANWNPITGTIKTFEWIIQNVTNSWNATILVFDFLIGAGVGLIYKSGGVHAVANAITKRIKTSRDASLLGWLLGVLIFFDDYTNTIIVGNTMRPITDKMRVSREMLAYIDDSTAAPVAGIAIVSTWIGYELGLIKEAFEKLHITMGEYYAWLHSVPYRFYSIFAIILVFIVAYTHRHYGAMLKAEMRARTTGKVVRDDAKPLMATESDLGLPLTEKGSVHFFIWPVLSLIIVTLLGLYYTGKAACEGPCGAMDILSNADSATSLLWGSFAMVAVALTLVLATKTMTVEETESAIIQGMKQMMMATVILVLAWSIKSATEAVGTAEYVVGLAQRANVPGGIIPLIIFLTAMFISFTTGTSWGTFGILMPIAIPLAYKLAPNDPQVLFASIGAVFAGGIFGDHCSPISDTTIMSSMFSGSDHIDHVTTQIPYAVTAASVGIVLYILFALGIKSPVILLPVGLVLLIAAWYFLSEWYGKKYGVPHGRVPIYPTEISE | failed
